# Data reported in patent US6018029.
# Molecular target: IL-1 receptor on the THP-1 human monocyte cell line (human) (UniProt P14778)
substance,measurement,value
IL-1B (ligand),"IL-6 message level (IL-6 mRNA, Northern blot, arbitrary units) (arbitrary units)",12
